Measurements: patent US20090280134A1

How the values were obtained:
[1] = molecular target: PSGL-1/mIgG2b fusion protein co-expressed with porcine α1,3 galactosyltransferase (α-Gal substituted) (human; mouse) (UniProt Q14242); assay: sandwich ELISA, fusion protein made in CHO cells with α1,3GalT against the same made without α1,3GalT
[2] = molecular target: PSGL-1/mIgG2b fusion protein co-expressed with porcine α1,3 galactosyltransferase (α-Gal substituted) (human; mouse) (UniProt Q14242); assay: sandwich ELISA, fusion protein made in 293T cells with α1,3GalT against the same made without α1,3GalT
[3] = molecular target: PSGL-1/mIgG2b fusion protein co-expressed in CHO-K1 cells with porcine α1,3GalT and core 2 β1,6 GlcNAc transferase (C2 GnTI) (human; mouse) (UniProt Q14242); assay: sandwich ELISA, fusion protein from CHO-K1 with α1,3GalT and C2 GnTI against fusion protein from CHO-K1 without α1,3GalT
[4] = molecular target: PSGL-1/mIgG2b fusion protein co-expressed with porcine α1,3 galactosyltransferase (α-Gal substituted) (human; mouse) (UniProt Q14242); assay: sandwich ELISA, fusion protein made in COS cells with α1,3GalT against the same made in COS without α1,3GalT
[5] = molecular target: PSGL-1/mIgG2b fusion protein co-expressed in CHO-K1 cells with porcine α1,3GalT and core 2 β1,6 GlcNAc transferase (C2 GnTI) (human; mouse) (UniProt Q14242); assay: sandwich ELISA, fusion protein from CHO-K1 with α1,3GalT and C2 GnTI against fusion protein from CHO-K1 with α1,3GalT alone

peroxidase-conjugated Griffonia (Bandeiraea) simplicifolia I isolectin B4 (cat.no. L-5391; Sigma)
fold increase in relative O.D. (GSA-reactivity/anti-mouse IgG reactivity) [1]: 1.8 fold
fold increase in relative O.D. (GSA-reactivity/anti-mouse IgG reactivity) [2]: 3.1 fold
fold increase in α-Gal epitope density (relative O.D., GSA-reactivity/anti-mouse IgG reactivity) [3]: 13 fold
fold increase in relative O.D. (GSA-reactivity/anti-mouse IgG reactivity) [4]: 5.3 fold
fold increase in α-Gal epitope density (relative O.D., GSA-reactivity/anti-mouse IgG reactivity) [5]: 7.4 fold
